Reference: patent WO2015070078A1
Values belong to the substance of their own block, whether it stands above or below them.

Experiments:
[1] = target: mouse FcγRIV (mouse); assay: ELISA, recombinant mouse FcγRIV coated on the plate
[2] = target: mouse FcγRIIb (mouse) (UniProt P08101); assay: ELISA, recombinant mouse FcγRIIb coated on the plate
[3] = target: human FcγRIIIa 158F variant (human) (UniProt P08637); assay: flow cytometry titration on CHO cells expressing human FcγRIIIa-158F
[4] = target: human FcγRIIIa (158V variant) (human) (UniProt P08637); assay: flow cytometry titration on CHO cells expressing human FcγRIIIa-158V
[5] = target: human FcγRIIb (human) (UniProt P31994); assay: flow cytometry on CHO cells expressing human FcγRIIb; antibody as dimeric complex with PE-conjugated Fab'2 anti-human Fab'2
[6] = target: human FcγRIIIA (CD16A), variant at 158 not stated (human) (UniProt P08637); assay: cell-based or functional assay; set-up: unit not given beside the values

higher affinity (against ESK1) [1]: 51%
affinity as a fraction of that of ESK1 [2]: 0.5 fold
fold higher affinity (against normally glycosylated ESK1) [3]: 3.5 fold
higher affinity (against normally glycosylated ESK1) [4]: 80%
reduced affinity (against normally glycosylated ESK1) [5]: 50%
Substance: ESKM (produced in MAGE 1.5 CHO cells, no detectable fucose or galactose) (antibody)

EC50 of reverse signaling through FcγRIIIA (CD16A): NFAT-luciferase reporter in Jurkat cells with RMF-pulsed T2 cells [6]: > 10000
Substance: ESK1 containing D265A/P329A mutations in the Fc domain (antibody)

EC50 of reverse signaling through FcγRIIIA (CD16A): NFAT-luciferase reporter in Jurkat cells with RMF-pulsed T2 cells [6]: 0.88
Substance: ESK1 (antibody)

EC50 of reverse signaling through FcγRIIIA (CD16A): NFAT-luciferase reporter in Jurkat cells with RMF-pulsed T2 cells [6]: 0.17
Substance: ESKM having 100% reduced fucose content relative to ESK1 wildtype IgG1 (GlymaxX technology, CHO cells) (antibody)
